Source: FireProtDB (doi:10.1021/bi034721x)
Several values for one entry are separate records, joined by “and”; a condition that tells them apart may be missing. Identical values can stand only once.

B1: Parvalbumin alpha, P02625 (parent)
chain: MSMTDLLSAEDIKKAIGAFTAADSFDHKKFFQMVGLKKKSADDVKKVFHILDKDKSGFIEEDELGSILKGFSSDARDLSAKETKTLMAAGDKDGDGKIGVEEFSTLVAES

Variants of: B1
Conditions: Rattus norvegicus, pH 7.4, Thermal, DSC, sodium phosphate 10 mM, NaCl 0.20 M, structure 1RTP, whole UniProt chain shown

Row | Variant | ddG of mutation (higher = less stable) (45.8 °C) [kcal/mol] | heat capacity change of unfolding (45.8 °C) [kcal/mol/K] | Tm [°C] | change of melting temperature, mutant - wild type (higher = more stable) [°C] | unfolding enthalpy (calorimetric) | ddG of mutation (higher = less stable) (44.2 °C) [kcal/mol] | heat capacity change of unfolding (44.2 °C) [kcal/mol/K]
1 | H27P | -1.25 | 1.4 | 51.4 | 5.6 | 80 kcal/mol |  | 
2 | A22P K81S | -0.45 | 1.4 | 47.8 | 2 | 75 kcal/mol |  | 
3 | K81S | 0.29 | 1.4 | 44.5 | -1.3 | 71 kcal/mol |  | 
4 | A22P H27P | 0.5 | 1.4 | 43.6 | -2.2 | 62 kcal/mol |  | 
5 | A22P | 1.92 | 1.4 |  |  | 52 kcal/mol and 63 kcal/mol | -0.95 | 1.4
